The chains are these.
T1: ECD of murine IGSF11, recombinant biotinylated (mouse, UniProt P0C673 23-240)
T1 construct: whole entry named; also called Mouse IGSF11
T1 sequence: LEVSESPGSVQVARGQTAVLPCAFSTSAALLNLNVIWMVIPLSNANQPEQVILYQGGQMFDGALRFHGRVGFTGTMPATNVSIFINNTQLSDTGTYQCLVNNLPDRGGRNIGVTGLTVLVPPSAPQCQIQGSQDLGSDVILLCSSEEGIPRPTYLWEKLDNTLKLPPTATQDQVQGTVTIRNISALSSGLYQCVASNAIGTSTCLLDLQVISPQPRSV

T2: full-length ECD of human IGSF11 fused to murine Fc (human, UniProt Q5DX21 23-241)
T2 construct: also called Fc-fusion IGSF11 ECD; not shown: murine Fc
T2 sequence: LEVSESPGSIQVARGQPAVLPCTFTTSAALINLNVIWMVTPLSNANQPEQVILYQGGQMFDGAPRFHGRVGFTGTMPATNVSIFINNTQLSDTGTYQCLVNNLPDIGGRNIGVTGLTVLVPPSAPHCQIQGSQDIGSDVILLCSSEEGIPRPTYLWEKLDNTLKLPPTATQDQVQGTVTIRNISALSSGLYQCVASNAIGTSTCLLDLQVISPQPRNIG

T3: IgC2 domain of human IGSF11 fused to murine IgG2a Fc (human, UniProt Q5DX21 137-241)
T3 construct: not shown: murine IgG2a Fc-region
T3 sequence: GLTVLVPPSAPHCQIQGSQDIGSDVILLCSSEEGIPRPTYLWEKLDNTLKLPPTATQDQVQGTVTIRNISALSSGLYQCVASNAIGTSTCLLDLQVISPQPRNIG

T4: extracellular domain (ECD) of human IGSF11 (VSIG3), recombinant (human, UniProt Q5DX21 23-241)
T4 construct: biotinylated where captured on streptavidin; tags of the reagent not always stated; also called IGSF11 (ECD domain); ECD-IGSF11
T4 sequence: T2 sequence

B1: A-024 (scFv format) (scFv, V domains shown)
VH: QMQLVQSGAEVKKPGSSVKVSCKASGGTFSSYAISWVRQAPGQGLEWMGWISAYNGNTNYAQKLQGRVTMTTDTSTSTAYMELRSLRSDDTAVYYCASLGSYGYTGAFDIWGQGTMATVSS
VL: QSALTQPASVSGSPGQSITISCTGTSSDVGGYNYVSWYQQHPGKAPKLMIYEVSNRPSGVSNRFSGSKSGNTASLTISGLQAEDEADYYCSSYTSSSTLVVFGGGTKLTVL
B2: A-009 (scFv format) (scFv, V domains shown)
VH: QVQLVQSGAEVKKPGSSVKVSCKASGGTFSSYAISWVRQAPGQGLEWMGGIIPIFGTANYAQKFQGRVTITADESTSTAYMELSSLRSEDTAVYYCARGRGFGELYFDYWGQGTLVTVSS
VL: ETTLTQSPATLSVSPGERATLSCRASQGVRSNIAWYQQKPGQAPRLLIYDSSTRATGIPARFSGSGSGTEFTLTISSLQSEDFAVYSCQQYKNWPRTFGQGTKVEIK
notes: scFv
B3: A-005 (scFv format) (scFv, V domains shown)
VH: EVQLVESGGGLIQPGGSLRLSCAASGFTVSSNYMSWVRQAPGKGLEWVSVIYSGGSTYYADSVKGRFTISRDNSKNTLYLQMNSLRAEDTAVYYCARGNPYYYGDLQVNFDYWGQGTLVTVSS
VL: QAVVTQEPSLTVSPGETVTLTCASSTGAVTSGYYPNWFQQRPGQAPRALIYSTSNKDSWTPARFSGSLLGGKAALTLSGVQPEDEAEYYCLLYYGGAWVFGGGTKLTVL
notes: scFv
B4: A-002 (scFv format) (scFv, V domains shown)
VH: B3 VH
VL: B3 VL with E16G, L20P, A23G, Y33N, Y34L, R41K, D57H, F64I
notes: scFv
B5: A-017 (scFv format) (scFv, V domains shown)
VH: QVQLVQSGAEVKKPGASVKVSCKASGYTFTGYYMHWVRQAPGQGLEWMGWINPNSGNTGYAQKFQGRVTMTRNTSISTAYMELSSLRSEDTAVYYCARGGQQQLVLDDYWGQGTLVTVSS
VL: DIVLTQSPASLSASVGDRITITCQASQDIRHHLNWFQHKPGKAPKLLISDSSNLETGVPSRFSGSGSGTDFSFTISRLQPEDIATYYCQQYDSLPRTFGQGTKLEIK
notes: scFv
B6: A-023 (scFv format) (scFv, V domains shown)
VH: QVQLVQSGAEVKKPGSSVKVSCKASGGTFSSYAISWVRQAPGQGLEWMGGIIPIFGTANYAQKFQGRVTITADESTSTAYMELSSLRSEDTAVYYCARPKYSSGWFYYYGMDVWGQGTTVTVSS
VL: QSVLTQPPSVSAAPGQKVTISCSGSSSNIGNNYVSWYQQLPGTAPKLLIYDNNKRPSGIPDRFSGSKSGTSATLGITGLQTGDEADYYCGTWDSSLSVVFGGGTKLTVL
notes: scFv
B7: A-021 (scFv format) (scFv, V domains shown)
VH: QVQLVQSGAEVKKPGASVKVSCKASGYTFTSYGISWVRQAPGQGLEWMGWISAYNGNTNYAQKLQGRVTMTTDTSTSTAYMELRSLRSDDTAVYYCARVPAWSGQFDYWGQGTLVTVSS
VL: QSALTQPASVSGSPGQSITISCTGTSSDVGGYNYVSWYQQHPGKAPKLMIYEVTNRPSGVSDRFSGSKSANTASLTISELQAEDEAVYYCNSYTSGPTYVLFGGGTQLTVL
notes: scFv
B8: A-014 (scFv format) (scFv, V domains shown)
VH: QVQLVQSGAEVKKPGASVKVSCKASGYTFNDYYIHWVRQAPGQGLEWMGWFNPSTGGANYAQKFQGRVTMTRDTSISTAYLEVSSLRSDDTAVYYCARGNSPDLDYWGQGTLVTVSS
VL: DIQMTQSPDSLTVSLGERATINCKSSQSLLHSSNNKNYLAWYQQRPGQPPKLLIYWASTRQSGVPDRFSGSGSGTDFTLTINSLQADDMAVYYCQQYYTTTPNTFGQGTKLEIK
notes: scFv
B9: C-005 (Fab format) (Fab, V domains shown)
VH: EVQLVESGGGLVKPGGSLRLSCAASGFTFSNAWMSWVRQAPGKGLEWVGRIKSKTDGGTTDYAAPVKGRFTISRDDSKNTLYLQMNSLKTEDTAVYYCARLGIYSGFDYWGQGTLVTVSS
VL: SYELTQPPSVSVSPGQTASITCSGDKLGDKYASWYQQKPGQSPVLVIYQDSKRPSGIPERFSGSNSGNTATLTISGTQAEDEADYYCHSYTGKPSQVVFGGGTKLTVL
notes: Fab from E. coli lysate
B10: C-009 (Fab format) (Fab, V domains shown)
VH: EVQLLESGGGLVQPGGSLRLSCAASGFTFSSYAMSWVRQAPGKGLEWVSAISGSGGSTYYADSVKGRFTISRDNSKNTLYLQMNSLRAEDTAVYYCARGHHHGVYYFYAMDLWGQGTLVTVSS
VL: B9 VL with H88Q, T91S, K93S, P94S, S95T, Q96L, V97H
notes: Fab from E. coli lysate
B11: C-008 (Fab format) (Fab, V domains shown)
VH: EVQLLESGGGLVQPGGSLRLSCAASGFTFSSYAMSWVRQAPGKGLEWVSAISGSGGSTYYADSVKGRFTISRDNSKNTLYLQMNSLRAEDTAVYYCTTDNGHNRDWGQGTLVTVSS
VL: ASVLTQPPSVSAAPGQKVTISCSGSSSNIGNNYVSWYQQLPGTAPKLLIYDNNKRPSGIPDRFSGSKSGTSATLGITGLQAEDEADYYCGTWTRSSGVFGGGTKLTVL
notes: Fab from E. coli lysate
B12: C-007 (Fab format) (Fab, V domains shown)
VH: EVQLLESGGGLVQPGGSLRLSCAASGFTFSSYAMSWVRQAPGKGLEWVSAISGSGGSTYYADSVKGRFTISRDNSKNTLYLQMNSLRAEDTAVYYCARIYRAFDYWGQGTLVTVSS
VL: ASVLTQPPSVSAAPGQKVTISCSGSSSNIGNNYVSWYQQLPGTAPKLLIYDNNKRPSGIPDRFSGSKSGTSATLGITGLQAEDEADYYCQLYEEEHSTWVFGGGTKLTVL
notes: Fab from E. coli lysate
B13: C-026 (Fab format) (Fab, V domains shown)
VH: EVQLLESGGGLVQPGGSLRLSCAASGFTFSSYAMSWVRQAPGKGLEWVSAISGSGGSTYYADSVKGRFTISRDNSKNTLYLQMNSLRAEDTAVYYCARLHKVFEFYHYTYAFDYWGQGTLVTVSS
VL: B12 VL with Q90A, L91S, E93S, E94S, H96T, T98G
notes: Fab from E. coli lysate
B14: C-001 (Fab format) (Fab, V domains shown)
VH: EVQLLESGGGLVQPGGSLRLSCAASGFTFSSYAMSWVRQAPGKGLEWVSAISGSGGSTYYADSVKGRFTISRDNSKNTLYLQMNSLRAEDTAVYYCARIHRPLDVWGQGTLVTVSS
VL: B12 VL with Q90G, L91S, Y92W, E93L, H96R, T98Q, W99Y
notes: Fab from E. coli lysate
B15: C-022 (Fab format) (Fab, V domains shown)
VH: EVQLLESGGGLVQPGGSLRLSCAASGFTFSSYAMSWVRQAPGKGLEWVSAISGSGGSTYYADSVKGRFTISRDNSKNTLYLQMNSLRAEDTAAYYCARMAAGASWGTFDYWSQGTLVTVSS
VL: DIQMTQSPSSLSASVGDRVTITCRASQSISSYLNWYQQKPGKAPKLLIYAASSLQSGVPSRFSGSGSGTDFTLTISSLQPEDFATYYCQQRSGSPLTFGQGTKVEIK
notes: Fab from E. coli lysate
B16: C-010 (IgG1 format) (antibody, V domains shown)
VH: B2 VH with R100Y, F102E, G103Y, E104Y, L105P, Y106A, Y109V
VL: B9 VL with H88A, T91A, G92H, K93T, P94H, Q96T, V97W
B17: C-014 (IgG1 format) (antibody, V domains shown)
VH: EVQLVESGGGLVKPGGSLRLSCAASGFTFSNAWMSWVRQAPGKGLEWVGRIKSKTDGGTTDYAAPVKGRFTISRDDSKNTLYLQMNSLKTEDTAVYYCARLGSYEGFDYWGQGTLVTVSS
VL: B9 VL with H88S, S89T, G92V, K93T, P94S, Q96V
B18: C-013 (IgG1 format) (antibody, V domains shown)
VH: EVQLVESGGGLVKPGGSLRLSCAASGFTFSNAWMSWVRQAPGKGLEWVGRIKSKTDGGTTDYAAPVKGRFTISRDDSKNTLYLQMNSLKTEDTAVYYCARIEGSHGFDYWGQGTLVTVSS
VL: B9 VL with H88A, T91L, G92H, K93T, S95K, V97F
B19: C-023 (IgG1 format) (antibody, V domains shown)
VH: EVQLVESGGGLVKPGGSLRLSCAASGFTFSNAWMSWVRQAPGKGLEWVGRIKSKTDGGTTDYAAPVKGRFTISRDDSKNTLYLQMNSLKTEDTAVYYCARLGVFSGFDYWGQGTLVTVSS
VL: B9 VL with S89T, Y90W, G92H, K93H, P94S, S95L, Q96A
B20: C-006 (IgG1 format) (antibody, V domains shown)
VH: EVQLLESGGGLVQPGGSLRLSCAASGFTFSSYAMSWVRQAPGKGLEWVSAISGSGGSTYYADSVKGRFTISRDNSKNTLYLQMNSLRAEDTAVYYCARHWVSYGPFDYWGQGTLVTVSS
VL: DIQMTQSPSSLSASVGDRVTITCRASQSISSYLNWYQQKPGKAPKLLIYAASSLQSGVPSRFSGSGSGTDFTLTISSLQPEDFATYYCQQSHQSPPITFGQGTKVEIK
B21: C-002 (IgG1 format) (antibody, V domains shown)
VH: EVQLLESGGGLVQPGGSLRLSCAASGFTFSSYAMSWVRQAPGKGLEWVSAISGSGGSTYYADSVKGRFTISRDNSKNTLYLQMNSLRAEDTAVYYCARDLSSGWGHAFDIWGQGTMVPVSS
VL: B12 VL with Q90L, L91S, E93T, E94T, E95S, H96E, S97H, T98H, W99L
B22: C-021 (IgG1 format) (antibody, V domains shown)
VH: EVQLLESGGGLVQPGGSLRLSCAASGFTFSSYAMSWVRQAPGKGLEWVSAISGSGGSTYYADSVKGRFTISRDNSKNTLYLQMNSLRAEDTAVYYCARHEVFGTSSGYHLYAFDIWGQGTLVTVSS
VL: B15 VL with R91W, S94L

Substitutions are numbered along the chain they refer to. Bounds are passed on as bounds.

Chain of Streptavidin (P22629 37-163 limits assumed): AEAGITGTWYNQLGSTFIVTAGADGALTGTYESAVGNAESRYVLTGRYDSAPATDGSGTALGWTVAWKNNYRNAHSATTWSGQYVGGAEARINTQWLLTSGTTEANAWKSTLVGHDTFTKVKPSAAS

The target in one assay is T1, ECD of murine IGSF11, recombinant …. In words: ELISA RFU 0.1-0.5. (In general: In an ELISA, binding on a coated surface is turned into a signal by an enzyme label.)
For B1, the “ELISA binding signal (RFU)” value was in the range of 0.1 to 0.5 rfu.
Still for that read-out and setting: next, B2: 0.1 to 0.5 rfu; B3: 0.1 to 0.5 rfu.
Same read-out and setting: as for B4, the figure is 0.1 to 0.5 rfu; as for B5, 0.1 to 0.5 rfu.
Still for that read-out and setting: next, B6: 0.1 to 0.5 rfu; B7: 0.1 to 0.5 rfu; B8: 0.1 to 0.5 rfu.

A further assay concerns the target Streptavidin (UniProt P22629 37-163, limits assumed). In words: Fab ELISA.
For B9, the A450 is under 0.1.
The same measure, in the same setting: next, B10: under 0.1; B11: under 0.1.
On the same count and under the same terms, as for B12, the figure is under 0.1; as for B13, under 0.1.
On the same count and under the same terms, as for B14, the figure is under 0.1.
In turn, B15 gave an A450 of under 0.1.

The target in the next assay is T2, full-length ECD of human IGSF11 fused …. The assay can be described thus: IgG ELISA.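 Further: ELISA binding of IgG antibodies to plate-coated IGSF11 Fc-fusion proteins (full-length ECD, IgV or IgC2 domain), detected via HRP-labelled anti-human IgG with TMB development.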
By EC50 is commonly meant the concentration needed to bring the measured effect to its halfway point. Higher therefore signals lower potency in that assay. Molecule B16 came in with a 50% effective concentration (EC50) of 20 to 100 nM.
On the same count and under the same terms, next, B17: 1 to 20 nM; B18: 1 to 20 nM.
The molecule B19 gave an EC50 of under 1 nM.
Molecule B20 showed an EC50 of 1 to 20 nM.
In turn, B21 registered an EC50 of 1 to 20 nM.

For the next assay, the target named is T3, IgC2 domain of human IGSF11 fused to …. In words: IgG ELISA.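 Further: ELISA binding of IgG antibodies to plate-coated IGSF11 Fc-fusion proteins (full-length ECD, IgV or IgC2 domain), detected via HRP-labelled anti-human IgG with TMB development.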
B16: the EC50 lay in the range of 1 to 20 nM.
The same measure, in the same setting: next, B17: under 1 nM.
Same read-out and setting: next, B18: under 1 nM; B19: under 1 nM; B20: under 1 nM.
Same read-out and setting: next, B21: under 1 nM.
B22 registered an EC50 of under 1 nM.

The next assay has as its target T4, extracellular domain (ECD) of human …. In words: ELISA RFU 0.5-1.0.
For B1, the “ELISA binding signal (RFU)” value was 0.5 to 1 rfu.
The same measure, in the same setting: next, B2: 0.5 to 1 rfu; B3: 0.5 to 1 rfu; B4: 0.5 to 1 rfu.
The same measure, in the same setting: as for B5, the figure is 0.5 to 1 rfu.
For the molecule B6, the “ELISA binding signal (RFU)” value was 0.5 to 1 rfu.
The same measure, in the same setting: as for B7, the figure is 0.5 to 1 rfu; as for B8, 0.5 to 1 rfu.

The values are drawn from patent US20220372138A1 (IOMX THERAPEUTICS, published 2022).
